Data as given in patent US7855167.

Experiments:
[1] = target: WinZip-B2-DHFR[2:I114A] (murine) (UniProt P00375); experiment: cell-based or functional assay
[2] = target: WinZip-B1-DHFR[2:I114A] (murine) (UniProt P00375); experiment: cell-based or functional assay

Frequency of dominant Pair at P12 [1]: 67%
Selection factor (competition selection) [1]: 87000
frequency of the pair among sequenced colonies at P10 (fraction (3/5)) [1]: 0.6
Frequency of dominant Pair at P12 [2]: 82%
Selection factor (competition selection) [2]: 3.2e+06
frequency of the pair among sequenced colonies at P10 [2]: 33%
Substance: WinZip-A1-DHFR[1] (from UniProt P00375 1-107) (designed binder)
